Source: patent US20230331868A1
Where a chain is given by its changes, count along the chain named.

B1: Humanized 3F1 VL1,VH2 (antibody, V domains shown)
VH: QVQLVQSGAEVKKPGASVKISCKASGYTFTDHAIHWVRQAPGQGLEWIGYISPGNGDIKYNEKFKDRVTLTADKSSSTASMHLRSLRSDDTAVYFCKRSLLALDYWGQGTLVTVSS
VL: DIQMTQSPSSLSASVGDRVTITCKASQDVGTNIAWYQQKPGKAPKVLIYSASTRHTGVPSRFSGSGSGTDFTLTISSLQPEDFATYFCQQYSSFPLTFGQGTKVEIK
B2: Humanized 3F1 VL1,VH3 (antibody, V domains shown)
VH: B1 VH with Q1E, I20V, I48M, N55S, L70M, S80Y, H82Q
VL: B1 VL
B3: Humanized 3F1 VL1,VH4 (antibody, V domains shown)
VH: B1 VH with Q1E, N55S
VL: B1 VL
B4: Humanized 2G12-2B2 VL0,VH3 (antibody, V domains shown)
VH: EVQLVQSGAEVKKPGASVKVSCKASGYTFTDHAIHWVRQAPGQGLEWMGYFSPGNDDIKYNEKFRGRVTMTADKSSSTAYMELRSLRSDDTAVYFCKRSLSTPYWGQGTLVTVSS
VL: DIVMTQSPDSLAVSLGERATINCKSSQSLLNRGNHKNYLTWYQQKPGQPPKLLIYWASTRESGVPDRFSGSGSGTDFTLTISSLQAEDVAVYYCQNDYTYPYTFGQGTKVEIK
B5: Humanized 2G12-2B2 VL0,VH2 (antibody, V domains shown)
VH: B4 VH with E1Q, V20I, M48I, M70L
VL: B4 VL
B6: Humanized 2G12-2B2 VL2,VH1 (antibody, V domains shown)
VH: B4 VH with E1Q
VL: B4 VL with A19V, I21M, N22S
B7: Humanized 2G12-2B2 VL0,VH1 (antibody, V domains shown)
VH: B4 VH with E1Q
VL: B4 VL

Target: bovine submaxillary mucin (bovine)
Assay: ELISA on BSM-coated wells; periodate-sensitive signal

Row | EC50 [nM] | Binder
1 | 1.4 | B1
2 | 12.2 | B2
3 | 6.5 | B3
4 | 4.2 | B4
5 | 1.8 | B5
6 | 4.4 | B6
7 | 4.5 | B7

Target: bovine submaxillary mucin (bovine)
Assay: ELISA on BSM-coated wells; antibody from one liter production

Row | EC50 [nM] | Binder
8 | 0.57 | B1
9 | 0.8 | B4
